Experimental findings from patent US20250320295A1 (INHIBRX BIOSCIENCES, published 2025) are described below.

The target of assay [1] is T1, Human CD8a (human, UniProt P01732 22-235).
T1 construct: also called CD8α; human CD8a-FL
Put plainly: flow cytometry, isolated human T cells, PI-CD4- gate (table title says transfected HEK293F cells). How it is done:
Binding of polypeptides comprising a humanized CD8a-binding VHH domain, an Fc region, and, in certain polypeptides, a mutated, attenuated IL-2 fused to the C-terminus of the Fc region, was assessed by flow cytometry on isolated human T cells. […] Complexes or polypeptides that are not labeled “KiH” form homodimers under physiologic conditions. The isolated cells were plated in a 96-well plate at 50,000 cells per well in FACS buffer (PBS, 1% BSA, 0.1% NaN₃, pH 7.4). Test polypeptides were then diluted to 2× the final concentration of 200 nM, and a 5-fold serial dilution was made. FACS buffer with no polypeptide was used as a secondary antibody-only control. Test polypeptides were added to an equal volume of cells, and assay plates were incubated for 30 minutes at 4° C. After washing twice with 150 μL of FACS buffer per well, the cells were resuspended in FACS buffer with a fluorescently-labeled anti-human IgG antibody diluted 1:1000 to detect CD8α binding and fluorescently labeled anti-CD4 antibody (clone OKT4, 1:200). Propidium iodide (PI) was added at 1:2000 to distinguish live cells from dead cells. Assay plates were incubated at 4° C. for 30 minutes. After one additional wash with 150 μL of FACS buffer, polypeptide bound to CD8α was detected by flow cytometry on PI-CD4− and on PI-CD4+ cells. Binding was measured on these cell populations as mean fluorescence intensity (MFI) at 647 nm. Flow cytometric detection was performed on an ACEA Biosciences Novocyte-Quanteon Flow Cytometer. The data were plotted and analyzed using GraphPad Prism analysis software.

Assay [2] addresses T1, Human CD8a. Put plainly: flow cytometry, HEK293F cells transfected with human CD8a (citrine+ gate). How it is done: Binding of polypeptides comprising a humanized CD8a-binding VHH domain, an Fc region, and, in certain polypeptides, a mutated, attenuated IL-2 fused to the C-terminus of the Fc region, was assessed by flow cytometry on HEK293F cells transiently transfected with a plasmid encoding human CD8α or CD8b chains. […] Complexes or polypeptides that are not labeled “KiH” form homodimers under physiologic conditions. The transfected cells were plated in a 96-well plate at 50,000 cells per well in FACS buffer (PBS, 1% BSA, 0.1% NaN₃, pH 7.4). Test polypeptides were then diluted to 2× the final concentration of 500 nM, and a 6-fold serial dilution was made. FACS buffer with no polypeptide was used as a secondary antibody-only control. Test polypeptides were added to an equal volume of cells, and assay plates were incubated for 30 minutes at 4° C. After washing twice with 150 μL of FACS buffer per well, the cells were resuspended in FACS buffer with a fluorescently-labeled anti-human Fc antibody diluted 1:1000 to detect CD8 binding. Assay plates were incubated at 4° C. for 30 minutes. After one additional wash with 150 μL of FACS buffer, polypeptide bound to CD8 was detected by flow cytometry on cells positive for the transfection marker citrine. Binding was measured on these cell populations as mean fluorescence intensity (MFI) at 647 nm. Flow cytometric detection was performed on an IntelliCyt iQue Screener Plus. The data were plotted and analyzed using GraphPad Prism analysis software.

T1 sequence (P01732 22-235): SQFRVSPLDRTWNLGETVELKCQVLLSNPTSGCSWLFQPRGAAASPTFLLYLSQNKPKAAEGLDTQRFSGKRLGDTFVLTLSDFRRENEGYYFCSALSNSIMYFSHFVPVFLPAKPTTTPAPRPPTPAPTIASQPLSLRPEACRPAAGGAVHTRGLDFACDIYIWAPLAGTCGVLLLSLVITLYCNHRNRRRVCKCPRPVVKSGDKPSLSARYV

B1: hzB7v30-xELL-KiH Fc-IL-2 mutant (Fc fusion)
chain 1: QVQLVQSGGGEVQPGGSLRLSCAASGFTFDDYAMSWVRQAPGKGLEWVSTITWDAGGTDYAAPVKGRFTISRDNAKNTVYLQMSSLRAEDTAVYYCAKGSPELQYDTWGQGTLVTVKPDKTHTCPPCPAPGGPSVFLFPPKPKDTLMISRTPEVTCVVVDVSHEDPEVKFNWYVDGVEVHNAKTKPREEQYNSTYRVVSVLTVLHQDWLNGKEYKCKVSNKALPAPIEKTISKAKGQPREPQVCTLPPSRDELTKNQVSLSCAVKGFYPSDIAVEWESNGQPENNYKTTPPVLDSDGSFFLVSKLTVDKSRWQQGNVFSCSVMHEALHNRYTQKSLSLSPGK
chain 2: QVQLVQSGGGEVQPGGSLRLSCAASGFTFDDYAMSWVRQAPGKGLEWVSTITWDAGGTDYAAPVKGRFTISRDNAKNTVYLQMSSLRAEDTAVYYCAKGSPELQYDTWGQGTLVTVKPDKTHTCPPCPAPGGPSVFLFPPKPKDTLMISRTPEVTCVVVDVSHEDPEVKFNWYVDGVEVHNAKTKPREEQYNSTYRVVSVLTVLHQDWLNGKEYKCKVSNKALPAPIEKTISKAKGQPREPQVYTLPPCRDELTKNQVSLWCLVKGFYPSDIAVEWESNGQPENNYKTTPPVLDSDGSFFLYSKLTVDKSRWQQGNVFSCSVMHEALHNHYTQKSLSLSPG
notes: Knob-in-hole heterodimer: VHH on the N-terminus of each Fc, mutant IL-2 only on the knob Fc; not shown: mutant, attenuated IL-2 fused to the C-terminus of the knob Fc
For B1, in the assay with Human CD8a [1], the “Bmax (MFI)” value was determined as 247000 MFI and the Kd is 0.0943 nM.

B2: hzB7v28-xELL-P329G-KiH Fc-IL-2 mutant (Fc fusion)
chain 1: QVQLVQSGGGEVQPGGSLRLSCAASGFTFDDYAMSWVRQAPGKGLEWVSTITWDAEGTDYAAPVKGRFTISRDNAKNTVYLQMSSLRAEDTAVYYCAKGSPELQYDTWGQGTLVTVKPDKTHTCPPCPAPGGPSVFLFPPKPKDTLMISRTPEVTCVVVDVSHEDPEVKFNWYVDGVEVHNAKTKPREEQYNSTYRVVSVLTVLHQDWLNGKEYKCKVSNKALGAPIEKTISKAKGQPREPQVCTLPPSRDELTKNQVSLSCAVKGFYPSDIAVEWESNGQPENNYKTTPPVLDSDGSFFLVSKLTVDKSRWQQGNVFSCSVMHEALHNRYTQKSLSLSPG
chain 2: QVQLVQSGGGEVQPGGSLRLSCAASGFTFDDYAMSWVRQAPGKGLEWVSTITWDAEGTDYAAPVKGRFTISRDNAKNTVYLQMSSLRAEDTAVYYCAKGSPELQYDTWGQGTLVTVKPDKTHTCPPCPAPGGPSVFLFPPKPKDTLMISRTPEVTCVVVDVSHEDPEVKFNWYVDGVEVHNAKTKPREEQYNSTYRVVSVLTVLHQDWLNGKEYKCKVSNKALGAPIEKTISKAKGQPREPQVYTLPPCRDELTKNQVSLWCLVKGFYPSDIAVEWESNGQPENNYKTTPPVLDSDGSFFLYSKLTVDKSRWQQGNVFSCSVMHEALHNHYTQKSLSLSPG
notes: as for B1
Regarding B2, in the assay with Human CD8a [2], the “Bmax (MFI)” value worked out at 1.37e+07 MFI and the Kd came out at 2.84 nM.

B3: hzB7v34-xELL-KiH Fc-IL-2 mutant (Fc fusion)
chain 1: QVQLVQSGGGEVQPGGSLRLSCAASGFTFDDYAMSWVRQAPGKGLEWVSTITWSAGGTDYAAPVKGRFTISRDNAKNTVYLQMSSLRAEDTAVYYCAKGSPELQYDTWGQGTLVTVKPDKTHTCPPCPAPGGPSVFLFPPKPKDTLMISRTPEVTCVVVDVSHEDPEVKFNWYVDGVEVHNAKTKPREEQYNSTYRVVSVLTVLHQDWLNGKEYKCKVSNKALPAPIEKTISKAKGQPREPQVCTLPPSRDELTKNQVSLSCAVKGFYPSDIAVEWESNGQPENNYKTTPPVLDSDGSFFLVSKLTVDKSRWQQGNVFSCSVMHEALHNRYTQKSLSLSPGK
chain 2: QVQLVQSGGGEVQPGGSLRLSCAASGFTFDDYAMSWVRQAPGKGLEWVSTITWSAGGTDYAAPVKGRFTISRDNAKNTVYLQMSSLRAEDTAVYYCAKGSPELQYDTWGQGTLVTVKPDKTHTCPPCPAPGGPSVFLFPPKPKDTLMISRTPEVTCVVVDVSHEDPEVKFNWYVDGVEVHNAKTKPREEQYNSTYRVVSVLTVLHQDWLNGKEYKCKVSNKALPAPIEKTISKAKGQPREPQVYTLPPCRDELTKNQVSLWCLVKGFYPSDIAVEWESNGQPENNYKTTPPVLDSDGSFFLYSKLTVDKSRWQQGNVFSCSVMHEALHNHYTQKSLSLSPG
notes: as for B1
For B3, in the assay with Human CD8a [1], the “Bmax (MFI)” value was determined as 76100 MFI and the dissociation constant Kd worked out at 4.05 nM.

B4: hzB7v37-xELL-KiH Fc-IL-2 mutant (Fc fusion)
chain 1: QVQLVQSGGGEVKPGGSLRLSCAASGFTFDDYAMSWVRQAPGKGLEWVSTITWDAGGTYYAAPVKGRFTISRDNAKNTVYLQMSSLRAEDTAVYYCAKGSPELQYDTWGQGTLVTVKPDKTHTCPPCPAPGGPSVFLFPPKPKDTLMISRTPEVTCVVVDVSHEDPEVKFNWYVDGVEVHNAKTKPREEQYNSTYRVVSVLTVLHQDWLNGKEYKCKVSNKALPAPIEKTISKAKGQPREPQVCTLPPSRDELTKNQVSLSCAVKGFYPSDIAVEWESNGQPENNYKTTPPVLDSDGSFFLVSKLTVDKSRWQQGNVFSCSVMHEALHNRYTQKSLSLSPGK
chain 2: QVQLVQSGGGEVKPGGSLRLSCAASGFTFDDYAMSWVRQAPGKGLEWVSTITWDAGGTYYAAPVKGRFTISRDNAKNTVYLQMSSLRAEDTAVYYCAKGSPELQYDTWGQGTLVTVKPDKTHTCPPCPAPGGPSVFLFPPKPKDTLMISRTPEVTCVVVDVSHEDPEVKFNWYVDGVEVHNAKTKPREEQYNSTYRVVSVLTVLHQDWLNGKEYKCKVSNKALPAPIEKTISKAKGQPREPQVYTLPPCRDELTKNQVSLWCLVKGFYPSDIAVEWESNGQPENNYKTTPPVLDSDGSFFLYSKLTVDKSRWQQGNVFSCSVMHEALHNHYTQKSLSLSPG
notes: as for B1
For the molecule B4, in the assay with Human CD8a [1], the “Bmax (MFI)” value is 272000 MFI and the Kd is 0.0884 nM.

B5: hzB7v33-xELL-KiH Fc-IL-2 mutant (Fc fusion)
chain 1: QVQLVQSGGGEVQPGGSLRLSCAASGFTFDDYAMSWVRQAPGKGLEWVSTITWSAEGTYYAAPVKGRFTISRDNAKNTVYLQMSSLRAEDTAVYYCAKGSPELQYDTWGQGTLVTVKPDKTHTCPPCPAPGGPSVFLFPPKPKDTLMISRTPEVTCVVVDVSHEDPEVKFNWYVDGVEVHNAKTKPREEQYNSTYRVVSVLTVLHQDWLNGKEYKCKVSNKALPAPIEKTISKAKGQPREPQVCTLPPSRDELTKNQVSLSCAVKGFYPSDIAVEWESNGQPENNYKTTPPVLDSDGSFFLVSKLTVDKSRWQQGNVFSCSVMHEALHNRYTQKSLSLSPGK
chain 2: QVQLVQSGGGEVQPGGSLRLSCAASGFTFDDYAMSWVRQAPGKGLEWVSTITWSAEGTYYAAPVKGRFTISRDNAKNTVYLQMSSLRAEDTAVYYCAKGSPELQYDTWGQGTLVTVKPDKTHTCPPCPAPGGPSVFLFPPKPKDTLMISRTPEVTCVVVDVSHEDPEVKFNWYVDGVEVHNAKTKPREEQYNSTYRVVSVLTVLHQDWLNGKEYKCKVSNKALPAPIEKTISKAKGQPREPQVYTLPPCRDELTKNQVSLWCLVKGFYPSDIAVEWESNGQPENNYKTTPPVLDSDGSFFLYSKLTVDKSRWQQGNVFSCSVMHEALHNHYTQKSLSLSPG
notes: as for B1
Regarding B5, in the assay with Human CD8a [1], the Kd turned out to be 0.139 nM.

B6: hzB7v27-xELL-P329G-KiH Fc-IL-2 mutant (Fc fusion)
chain 1: QVQLVQSGGGEVQPGGSLRLSCAASGFTFDDYAMSWVRQAPGKGLEWVSTITWDAEGTYYAESVKGRFTISRDNAKNTVYLQMSSLRAEDTAVYYCAKGSPELQYDTWGQGTLVTVKPDKTHTCPPCPAPGGPSVFLFPPKPKDTLMISRTPEVTCVVVDVSHEDPEVKFNWYVDGVEVHNAKTKPREEQYNSTYRVVSVLTVLHQDWLNGKEYKCKVSNKALGAPIEKTISKAKGQPREPQVCTLPPSRDELTKNQVSLSCAVKGFYPSDIAVEWESNGQPENNYKTTPPVLDSDGSFFLVSKLTVDKSRWQQGNVFSCSVMHEALHNRYTQKSLSLSPG
chain 2: QVQLVQSGGGEVQPGGSLRLSCAASGFTFDDYAMSWVRQAPGKGLEWVSTITWDAEGTYYAESVKGRFTISRDNAKNTVYLQMSSLRAEDTAVYYCAKGSPELQYDTWGQGTLVTVKPDKTHTCPPCPAPGGPSVFLFPPKPKDTLMISRTPEVTCVVVDVSHEDPEVKFNWYVDGVEVHNAKTKPREEQYNSTYRVVSVLTVLHQDWLNGKEYKCKVSNKALGAPIEKTISKAKGQPREPQVYTLPPCRDELTKNQVSLWCLVKGFYPSDIAVEWESNGQPENNYKTTPPVLDSDGSFFLYSKLTVDKSRWQQGNVFSCSVMHEALHNHYTQKSLSLSPG
notes: as for B1
Consider B6, for which, in the assay with Human CD8a [2], the “Bmax (MFI)” value worked out at 1.45e+07 MFI and the Kd worked out at 3.18 nM.
